Assay results as given in publication doi:10.1101/2021.01.13.426364 (bioRxiv, 2021).

How the values were obtained:
[1] = molecular target: T1, Variant Surface Glycoprotein VSG2 on living VSG2-expressing bloodstream form trypanosomes (Trypanosoma brucei, UniProt P26332); assay: flow cytometry on cells
[2] = molecular target: T1, Variant Surface Glycoprotein VSG2 on …; assay: Western blot of washed cells after incubation with nanobody
[3] = molecular target: T2, Variant Surface Glycoprotein VSG2, soluble purified form (Trypanosoma brucei, UniProt P26332); assay: crystal structure
[4] = molecular target: T2, Variant Surface Glycoprotein VSG2, …; assay: SEC
[5] = molecular target: the molecule itself; assay: crystal structure

B1: NB14_(VSG2) sortagged with FAM (VHH)
VHH: QVQLQESGGGLVQAGGSLRLSCEASGLTFSNYAMAWFRQAPEKEREFVAGISWTGSRTYYADSVRGRFTTSRDGHKNTVYLQMNDLKPEDTAVYLCAADLLGSGKDGTSVYEYWGQGTQVTVSS
Question: Does B1 bind [1]?
Answer: binds

B2: NB14_(VSG2) (VHH)
VHH: QVQLQESGGGLVQAGGSLRLSCEASGLTFSNYAMAWFRQAPEKEREFVAGISWTGSRTYYADSVRGRFTTSRDGHKNTVYLQMNDLKPEDTAVYLCAADLLGSGKDGTSVYEYWGQGTQVTVSS
Question: Does B2 bind [2]?
Answer: binds

Question: Does B2 bind [3]?
Answer: binds

B3: NB9_(VSG2) (VHH)
VHH: QVQLQESGGGLVQAGGSLRLSCTTSGLTFSNYAFSWFRQAPGEEREFVGAISWSGGRTDYADSVKGRFTISRDNAKNTFYLQMNSLKTEDTAVYYCAADLLGEGSRRSEYEYWGQGTQVTVSS
Question: Does B3 bind [2]?
Answer: binds

Question: Does B3 bind [3]?
Answer: binds

B4: NB9_(VSG2) sortagged with FAM (VHH)
VHH: QVQLQESGGGLVQAGGSLRLSCTTSGLTFSNYAFSWFRQAPGEEREFVGAISWSGGRTDYADSVKGRFTISRDNAKNTFYLQMNSLKTEDTAVYYCAADLLGEGSRRSEYEYWGQGTQVTVSS
Question: Does B4 bind [1]?
Answer: binds

B5: NB11_(VSG2) mutant L100A (VHH)
VHH: QVQLQESGGGLVQAGGSLTLSCAVSGLTFSNYAMGWFRQAPGKEREFVAAITWDGGNTYYTDSVKGRFTISRDNAKNTVFLQMNSLKPEDTAVYYCAAKALGSSRYELALAGYDYWGQGTQVTVSS
Question: Does B5 bind [4]?
Answer: binds

B6: NB11_(VSG2) triple mutant L100/L101/S103 (VHH)
VHH: QVQLQESGGGLVQAGGSLTLSCAVSGLTFSNYAMGWFRQAPGKEREFVAAITWDGGNTYYTDSVKGRFTISRDNAKNTVFLQMNSLKPEDTAVYYCAAKAAGASRYELALAGYDYWGQGTQVTVSS
Question: Does B6 bind [4]?
Answer: no binding

B7: NB11_(VSG2) mutant S103A (VHH)
VHH: QVQLQESGGGLVQAGGSLTLSCAVSGLTFSNYAMGWFRQAPGKEREFVAAITWDGGNTYYTDSVKGRFTISRDNAKNTVFLQMNSLKPEDTAVYYCAAKLLGASRYELALAGYDYWGQGTQVTVSS
Question: Does B7 bind [4]?
Answer: binds

B8: NB11_(VSG2) mutant L101A (VHH)
VHH: QVQLQESGGGLVQAGGSLTLSCAVSGLTFSNYAMGWFRQAPGKEREFVAAITWDGGNTYYTDSVKGRFTISRDNAKNTVFLQMNSLKPEDTAVYYCAAKLAGSSRYELALAGYDYWGQGTQVTVSS
Question: Does B8 bind [4]?
Answer: binds

B9: NB19_(VSG2) sortagged with FAM (VHH)
VHH: QVQLQESGGGLVQAGGSLRLSCAASERTFSSLGMGWFRQGPGKEREFAAAISWSGVSTYYADSVKGRFTISRDNDKNTVYLQMNSLKPDDTAVYYCAATSSWNDMALKSAGWYEYWGQGTQVTVSS
Question: Does B9 bind [1]?
Answer: binds

B10: NB19_(VSG2) mutant E114/Y115A (VHH)
VHH: QVQLQESGGGLVQAGGSLRLSCAASERTFSSLGMGWFRQGPGKEREFAAAISWSGVSTYYADSVKGRFTISRDNDKNTVYLQMNSLKPDDTAVYYCAATSSWNDMALKSAGWYAAWGQGTQVTVSS
Question: Does B10 bind [4]?
Answer: no binding

B11: NB19_(VSG2) mutant Y115A (VHH)
VHH: QVQLQESGGGLVQAGGSLRLSCAASERTFSSLGMGWFRQGPGKEREFAAAISWSGVSTYYADSVKGRFTISRDNDKNTVYLQMNSLKPDDTAVYYCAATSSWNDMALKSAGWYEAWGQGTQVTVSS
Question: Does B11 bind [4]?
Answer: no binding

B12: NB19_(VSG2) mutant E114A (VHH)
VHH: QVQLQESGGGLVQAGGSLRLSCAASERTFSSLGMGWFRQGPGKEREFAAAISWSGVSTYYADSVKGRFTISRDNDKNTVYLQMNSLKPDDTAVYYCAATSSWNDMALKSAGWYAYWGQGTQVTVSS
Question: Does B12 bind [4]?
Answer: no binding

B13: NB19_(VSG2) (VHH)
VHH: QVQLQESGGGLVQAGGSLRLSCAASERTFSSLGMGWFRQGPGKEREFAAAISWSGVSTYYADSVKGRFTISRDNDKNTVYLQMNSLKPDDTAVYYCAATSSWNDMALKSAGWYEYWGQGTQVTVSS
Question: Does B13 bind [2]?
Answer: binds

Question: Does B13 bind [4]?
Answer: binds

B14: Variant Surface Glycoprotein VSG2, soluble purified form (natural protein, Trypanosoma brucei, UniProt P26332 27-459, looked up)
chain: AAEKGFKQAFWQPLCQVSEELDDQPKGALFTLQAAASKIQKMRDAALRASIYAEINHGTNRAKAAVIVANHYAMKADSGLEALKQTLSSQEVTATATASYLKGRIDEYLNLLLQTKESGTSGCMMDTSGTNTVTKAGGTIGGVPCKLQLSPIQPKRPAATYLGKAGYVGLTRQADAANNFHDNDAECRLASGHNTNGLGKSGQLSAAVTMAAGYVTVANSQTAVTVQALDALQEASGAAHQPWIDAWKAKKALTGAETAEFRNETAGIAGKTGVTKLVEEALLKKKDSEASEIQTELKKYFSGHENEQWTAIEKLISEQPVAQNLVGDNQPTKLGELEGNAKLTTILAYYRMETAGKFEVLTQKHKPAESQQQAAETEGSCNKKDQNECKSPCKWHNDAENKKCTLDKEEAKKVADETAKDGKTGNTNTTGSS
Question: Does B14 bind [5]?
Answer: binds
